Source: patent US20030186877A1 (BRIGHAM AND WOMEN S HOSPITAL, published 2003)
Square brackets hold non-standard residues; d marks the D form. * marks the point of attachment. dBpa = N[C@H](Cc1ccc(C(=O)c2ccccc2)cc1)C(=O)O; Boc = CC(C)(C)OC(=O)*; Aib = CC(C)(N)C(=O)O

Biological target: γ-secretase
Test: cell-based or functional assay

Row | Binder | IC50 of blocking Aβ production in APP-transfected cells [µM] | IC50 in the same cell-based assay using CHO cells stably transfected with human APP (production of total Aβ) [µM]
1 | Boc-[Aib]AL[Aib]AL[Aib]AL[Aib]-OMe (SMILES COC(=O)C(C)(C)NC(=O)[C@H](CC(C)C)NC(=O)[C@H](C)NC(=O)C(C)(C)NC(=O)[C@H](CC(C)C)NC(=O)[C@H](C)NC(=O)C(C)(C)NC(=O)[C@H](CC(C)C)NC(=O)[C@H](C)NC(=O)C(C)(C)NC(=O)OC(C)(C)C) [Boc-Aib-Ala-Leu-Aib-Ala-Leu-Aib-Ala-Leu-Aib-O-methylester] | 2 | –
2 | Boc-[dV]G[Aib][dV][dV][dBpa][Aib][dThr(OBz)][dV][Aib]-OMe [Boc-D-Val-Gly-Aib-D-Val-D-Val-D-BPA-Aib-D-Thr(OBz)-D-Val-Aib-OMe] | – | 0.1

Biological target: γ-secretase
Test: cell-based or functional assay
Remark: another data set of the same source

Row | Binder | IC50: concentration of compound that reduced production of total Aβ by 50% in a cell-based assay using CHO cells stably transfected with human APP [µM]
3 | Boc-VI[Aib][Thr(OBz)]V[Aib]-OMe [Boc-Val-Ile-Aib-Thr(OBz)-Val-Aib-OMe] | 12
4 | Boc-V[Aib]IA[Thr(OBz)][Aib]IV[Aib]-OMe [Boc-Val-Aib-Ile-Ala-Thr(OBz)-Aib-Ile-Val-Aib-OMe] | 2
5 | Boc-VVI[Aib][Thr(OBz)]V[Aib]-OMe [Boc-Val-Val-Ile-Aib-Thr(OBz)-Val-Aib-OMe] | 6
6 | Boc-GV[Aib]IA[Thr(OBz)][Aib]IV[Aib]-OMe [Boc-Gly-Val-Aib-Ile-Ala-Thr(OBz)-Aib-Ile-Val-Aib-OMe] | 5
7 | Boc-G[Aib]VVI[Aib][Thr(OBz)]V[Aib]-OMe [Boc-Gly-Aib-Val-Val-Ile-Aib-Thr(OBz)-Val-Aib-OMe] | 3
8 | Boc-[Aib]VVI[Aib][Thr(OBz)]V[Aib]-OMe [Boc-Aib-Val-Val-Ile-Aib-Thr(OBz)-Val-Aib-OMe] | 6
9 | Boc-IA[Thr(OBz)][Aib]IV[Aib]-OMe [Boc-Ile-Ala-Thr(OBz)-Aib-Ile-Val-Aib-OMe] | 15
10 | Boc-VG[Aib]VVI[Aib][Thr(OBz)]V[Aib]-OMe [Boc-Val-Gly-Aib-Val-Val-Ile-Aib-Thr(OBz)-Val-Aib-OMe] | 3
11 | Boc-[Aib]IA[Thr(OBz)][Aib]IV[Aib]-OMe [Boc-Aib-Ile-Ala-Thr(OBz)-Aib-Ile-Val-Aib-OMe] | 10
12 | Boc-A[Thr(OBz)][Aib]IV[Aib]-OMe [Boc-Ala-Thr(OBz)-Aib-Ile-Val-Aib-OMe] | 25
